Source: PMC12407893 (bioRxiv, 2025)

How the values were obtained:
[1] = molecular target: T1, yeast RNA polymerase II (pol II) WT, TAP tag on RPB3 (S. cerevisiae, UniProt P04050;P08518;P16370;P20433;P20434;P20435;P34087;P20436;P27999;P22139;P38902;P40 …); assay: pull-down
[2] = molecular target: RPB1, as subunit of purified yeast pol II (S. cerevisiae, UniProt P04050 1-1733); assay: cross-linking
[3] = molecular target: T2, RPB5, as subunit of purified yeast pol II (S. cerevisiae, UniProt P20434 1-215); assay: cross-linking
T2 sequence: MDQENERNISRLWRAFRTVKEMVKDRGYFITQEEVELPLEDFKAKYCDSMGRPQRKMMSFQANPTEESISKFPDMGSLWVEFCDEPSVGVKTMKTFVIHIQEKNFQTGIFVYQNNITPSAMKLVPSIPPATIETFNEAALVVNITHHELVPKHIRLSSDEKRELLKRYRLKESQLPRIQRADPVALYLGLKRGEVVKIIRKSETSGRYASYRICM

[4] = molecular target: T1, yeast RNA polymerase II (pol II) WT, …; assay: cross-linking
[5] = molecular target: T1, yeast RNA polymerase II (pol II) WT, …; assay: pull-down; remark: listed apart in the source

Sequence of RPB1, as subunit of purified yeast pol II (P04050 whole entry): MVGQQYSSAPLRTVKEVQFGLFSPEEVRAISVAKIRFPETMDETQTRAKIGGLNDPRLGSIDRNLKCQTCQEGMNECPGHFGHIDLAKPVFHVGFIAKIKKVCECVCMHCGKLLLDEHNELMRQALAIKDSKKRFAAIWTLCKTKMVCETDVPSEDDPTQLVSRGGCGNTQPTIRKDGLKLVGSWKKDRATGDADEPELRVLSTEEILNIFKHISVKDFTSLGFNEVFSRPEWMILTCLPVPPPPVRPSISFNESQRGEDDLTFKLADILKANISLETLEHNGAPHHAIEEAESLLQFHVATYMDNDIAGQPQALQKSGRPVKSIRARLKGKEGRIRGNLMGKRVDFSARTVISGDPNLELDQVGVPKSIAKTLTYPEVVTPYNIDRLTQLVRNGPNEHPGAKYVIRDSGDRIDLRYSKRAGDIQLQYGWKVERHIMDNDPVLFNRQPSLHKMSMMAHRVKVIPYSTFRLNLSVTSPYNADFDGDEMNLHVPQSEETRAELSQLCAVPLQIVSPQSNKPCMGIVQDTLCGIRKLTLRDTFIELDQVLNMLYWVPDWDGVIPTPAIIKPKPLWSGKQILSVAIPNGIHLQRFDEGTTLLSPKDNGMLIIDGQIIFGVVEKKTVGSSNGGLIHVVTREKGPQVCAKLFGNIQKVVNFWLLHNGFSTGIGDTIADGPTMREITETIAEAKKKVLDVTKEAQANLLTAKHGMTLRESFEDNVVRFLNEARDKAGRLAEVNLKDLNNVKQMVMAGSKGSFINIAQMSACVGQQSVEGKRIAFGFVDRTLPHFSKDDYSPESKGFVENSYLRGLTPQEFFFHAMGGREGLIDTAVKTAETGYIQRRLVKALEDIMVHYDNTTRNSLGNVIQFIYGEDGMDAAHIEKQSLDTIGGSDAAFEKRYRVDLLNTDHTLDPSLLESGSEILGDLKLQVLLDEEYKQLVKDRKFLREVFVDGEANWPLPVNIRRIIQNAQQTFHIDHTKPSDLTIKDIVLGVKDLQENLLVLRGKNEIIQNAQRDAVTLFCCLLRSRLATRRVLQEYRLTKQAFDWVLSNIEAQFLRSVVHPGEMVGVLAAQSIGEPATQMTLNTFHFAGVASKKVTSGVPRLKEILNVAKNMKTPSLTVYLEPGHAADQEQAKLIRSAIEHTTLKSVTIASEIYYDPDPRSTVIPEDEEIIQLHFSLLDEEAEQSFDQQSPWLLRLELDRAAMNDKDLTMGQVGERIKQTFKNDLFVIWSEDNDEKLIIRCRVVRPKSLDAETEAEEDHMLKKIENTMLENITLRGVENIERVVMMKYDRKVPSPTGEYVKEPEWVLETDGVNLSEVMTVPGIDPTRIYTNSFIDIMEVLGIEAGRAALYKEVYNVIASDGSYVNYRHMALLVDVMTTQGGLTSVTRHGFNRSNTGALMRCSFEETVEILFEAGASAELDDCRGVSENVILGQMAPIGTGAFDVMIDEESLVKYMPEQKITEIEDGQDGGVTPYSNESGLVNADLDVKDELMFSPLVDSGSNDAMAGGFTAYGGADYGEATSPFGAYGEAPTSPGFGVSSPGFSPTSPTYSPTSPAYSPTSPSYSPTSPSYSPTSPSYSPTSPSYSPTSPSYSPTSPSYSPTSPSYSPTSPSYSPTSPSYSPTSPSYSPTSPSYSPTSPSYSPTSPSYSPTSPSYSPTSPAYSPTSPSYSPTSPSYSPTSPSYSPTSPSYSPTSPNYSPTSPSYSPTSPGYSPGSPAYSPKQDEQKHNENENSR

B1: GST-fused Prp40 FF4 domain (351–415) (domain or fragment)
chain: NYTRDRIARDNFKSLLREVPIKIKANTRWSDIYPHIKSDPRFLHMLGRNGSSCLDLFLDFVDEQR
B1: binds [1].

B2: Prp40 FF4–6 (351–552) (domain or fragment)
chain: NYTRDRIARDNFKSLLREVPIKIKANTRWSDIYPHIKSDPRFLHMLGRNGSSCLDLFLDFVDEQRMYIFAQRSIAQQTLIDQNFEWNDADSDEITKQNIEKVLENDRKFDKVDKEDISLIVDGLIKQRNEKIQQKLQNERRILEQKKHYFWLLLQRTYTKTGKPKPSTWDLASKELGESLEYKALGDEDNIRRQIFEDFKPE
B2: binds [2]; binds [3]; binds [4].

B3: GST-fused Prp40 FF2 domain (204–269) (domain or fragment)
chain: FKEAFQKMLQNNSHIKYYTRWPTAKRLIADEPIYKHSVVNEKTKRQTFQDYIDTLIDTQKESKKKL
B3: binds [1].

B4: GST-fused Prp40 FF3 domain (270–335) (domain or fragment)
chain: KTQALKELREYLNGIITTSSSETFITWQQLLNHYVFDKSKRYMANRHFKVLTHEDVLNEYLKIVNT
B4: binds [1].

B5: protein A-tagged Prp40, full length (natural protein)
chain: MSIWKEAKDASGRIYYYNTLTKKSTWEKPKELISQEELLLRENGWKAAKTADGKVYYYNPTTRETSWTIPAFEKKVEPIAEQKHDTVSHAQVNGNRIALTAGEKQEPGRTINEEESQYANNSKLLNVRRRTKEEAEKEFITMLKENQVDSTWSFSRIISELGTRDPRYWMVDDDPLWKKEMFEKYLSNRSADQLLKEHNETSKFKEAFQKMLQNNSHIKYYTRWPTAKRLIADEPIYKHSVVNEKTKRQTFQDYIDTLIDTQKESKKKLKTQALKELREYLNGIITTSSSETFITWQQLLNHYVFDKSKRYMANRHFKVLTHEDVLNEYLKIVNTIENDLQNKLNELRLRNYTRDRIARDNFKSLLREVPIKIKANTRWSDIYPHIKSDPRFLHMLGRNGSSCLDLFLDFVDEQRMYIFAQRSIAQQTLIDQNFEWNDADSDEITKQNIEKVLENDRKFDKVDKEDISLIVDGLIKQRNEKIQQKLQNERRILEQKKHYFWLLLQRTYTKTGKPKPSTWDLASKELGESLEYKALGDEDNIRRQIFEDFKPESSAPTAESATANLTLTASKKRHLTPAVELDY
B5: binds [5].

B6: GST-fused Prp40 FF1 domain (134–189) (domain or fragment)
chain: EAEKEFITMLKENQVDSTWSFSRIISELGTRDPRYWMVDDDPLWKKEMFEKYLSNR
B6: binds [1].

B7: GST-fused Prp40 FF6 extension (488–583) (domain or fragment)
chain: NERRILEQKKHYFWLLLQRTYTKTGKPKPSTWDLASKELGESLEYKALGDEDNIRRQIFEDFKPESSAPTAESATANLTLTASKKRHLTPAVELDY
B7: binds [1].
